What was measured:
[1] = target: P113 N-terminal fragment D106K E107K, biotinylated bait (Plasmodium falciparum (3D7 strain)) (UniProt Q8ILP3); assay: SPR
[2] = target: T1, P113 N-terminal fragment (P. falciparum 3D7), purified soluble analyte (Plasmodium falciparum 3D7, stabilised); assay: SPR
T1 chain: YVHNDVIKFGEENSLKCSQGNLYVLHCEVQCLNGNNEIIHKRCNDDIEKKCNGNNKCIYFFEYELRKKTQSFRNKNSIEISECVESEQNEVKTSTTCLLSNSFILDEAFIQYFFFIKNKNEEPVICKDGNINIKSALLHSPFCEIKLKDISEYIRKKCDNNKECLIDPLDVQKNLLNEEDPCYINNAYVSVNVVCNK

With “purified monomeric RH5 protein (from UniProt Q8IFM5 25-526) (natural protein)” the fold reduction in dissociation half-life against wild-type P113 [1] was 2 fold.

B1: anti-P113 monoclonal antibody P3.2 (antibody, V domains shown)
VH: QVQLQQPGAELVKPGASVRLSCKASGYTFTSYFMYWVRQRPGQGLQSIGGINPNNGGSNFNERFKTKATLTVDKSSSIAYLQLNSLTSEDSAVYYCTRRGLGYDYGGFAYWGQGTLVTVSA
VL: DIQMTQTTSSLSASLGDRVTISCRASQDISNYLNWYQQKPDGTVKLLIYYTSRLHSGVSSRFSGSGSGTDYSLTIKNLEQEDIATYFCQQVNALPPTFGGGTKLEIK
B1 was tested, and the Kd [2] was 320 nM.
